# Measured values: the DeepSol protein solubility set
# Assay: soluble on expression in E. coli; label from the status in PepcDB or PDB records
row,Sequence,soluble on expression in E. coli
1,MSLYKQTSIFDAKFDKNRPLADRMRPRTLDEFVGQEHILGKGKALRELIEKDSITSMILWGPPGVGKTTLAMIIANMTNSKFVNFSAVLSGIKEIKEIMAQAERDAMYGQRTVVFIDEIHRFNKAQQDAFLPHVEKGNIILIGATTENPSFEVNSALLSRSKVFMMKPLDVKDIMIILKRALKDEERGLGLYNVEIDEEKLEKIALFSNGDARVALNTLEMAVMAANVVNGKRVVTDEILSDVMQKKALLYDKAGEEHYNLISAFHKSLRNSDWDAALYWMARMLEAGEDPLYIARRMIRFASEDVGLADPQALSVAIAAYEASHYIGMPECSVNLAQAAVYLALAPKSNALYVAYNRVKKDAEETFAEPVPMHLRNAPTKLMKELGYGEGYKYAHDFEEKVTDMECLPENLKGRRYYIPTDSGFEKKLKERMEEILKLKGEGHHHHHH,soluble
2,MSLYSSENDYIILEDKTATGKKRDWKGKKRRTNLMAEHYEALQSKTGIPYYGKKAEKLCSCAECLSFKRDPETGKLKLYQAQFCKVRLCPMCAWRRSLKIAYHNKLIVEEANRQYGCGWIFLTLTVRNVEGDGLKPMIADMMKGWNRLFGYKRVKVATLGYFRALEITKNHEEDTYHPHFHVLLPVKKSYFTHNYIKQSEWTSLWKRAMKLDYTPIVDIRRVKGRAKIDAEQIESDVREAMMEQKAVLEISKYPVKDTDVVRGNKVTEDNLNTVFYLDDALSARRLIGYGGILKEIHKELNLGDAEDGDLVKIEEEDDEVANEAFEVMAYWHPGIKNYIIREGHHHHHH,not soluble
3,MSLYSTPLKKRIDYDRETFTASASLGGNRLRNRPRDDQNNGKPNLSSRSFLSERKTRKDVLNKYGEAGNTIESELRDVTTHVKISGLTSSEPLQLASEFVQDLSFRDRNTPILDNPDYYSKGLDYNFSDEVGGLGAFTPFQRQQVTNIPDEVLSQVSNTEIKSDMGIFLELNYCWITSDNKLILWNINNSSEYHCIDEIEHTILKVKLVKPSPNTFVSSVENLLIVATLFDIYILTISFNDRTHELNIFNTGLKVNVTGFNVSNIISYERTGQIFFTGATDGVNVWELQYNCSENLFNSKSNKICLTKSNLANLLPTKLIPSIPGGKLIQKVLEGDAGTEEETISQLEVDQSRGVLHTLSTKSIVRSYLITSNGLVGPVLIDAAHIRRGMNALGVKNSPLLSNRAFKIAKIVSISMCENNDLFLAVITTTGVRLYFKGSISRRSIGSLKLDSVKFPPTSISSSLEQNKSFIIGHHPLNTHDTGPLSTQKASSTYINTTCASTIISPGIYFTCVRKRANSGELSKGITNKALLENKEEHKLYVSAPDYGILKNYGKEGHHHHHH,soluble
4,MSLYVKMMEMGRMIDNCLYCGSATLLSIIHLANGKNAVTCGKCGLTRTIPVPSAEYSEVAEYFENYLLKEKLFRAFSRKLLDFVLSVVQNGRLLEVGCSVGFFLEEAKRAGFSVNGVELNEKAATLSKGKDFDVRNCMLREAGFPSHEFDVVVMSHVLEHIQDLREFLADIKVLLRPGGKVIVSQPTPDGIVPKMQKKKWYGWVPNEHVWHFTPKTLSLVFAENGFDVVKVERNSMYYSLWPSSLRGILVALVARTAAVLGLGDQFYLAATVSEKDSEGHHHHHH,not soluble
5,MSMNRQEISDLCVKSLEGRMVGTEAQNIENGNAFYRYFFTNFPDLRVYFKGAEKYTADDVKKSERFDKQGQRILLACHLLANVYTNEEVFKGYVRETINRHRIYKMDPALWMAFFTVFTGYLESVGSLNDQQKAAWMALGKEFNAESQTHLKNSNLPHV,soluble
6,MSNDRPLIFVDLDDTLFQTARKTPADIEKHVATLDISGNANGYMTNVQKSFAHWLLAHADVVPVTARSVEAYSRVKLPFTAGAICSHGGVMLDVMGRLDPDWNEQMKQTLASYQSRLHELSAATLAIGQEMGFSLRGWVVEEAQLFHYVVTKHNESDDSILTKVLAEMQARGLLDGMHIHGNGNNLAFLPEGLAKRYAVQEWLRRDLAINGERPVLGFGDSITDLGFMDECHWWATPARSQLAKMFVGAAHE,not soluble
7,MSNEGSREESREPEAREGKSDEIFEVEKILAHKVTDNLLVLQVRWLGYGADEDTWEPEEDLQECASEVVAEYYKKLKVTDKTELIELLQKQIKKNKSQKSKKRSKTVSDHESNHDSDGSYGTPKTSKKSKKSAKNETPVSSKVPKVPTKAALKSYEATVSGPVAPNNAKKAAMEVRDTRRNWLDEESSDDEAETTAPLSDVEKIASKVKVVKAVEEKAEEPVKRPSTPPKPREVVIKKDPSESPVASASSVIPTSKRKSINAETSNGRQRTLAPPVIVKDETTWTVDGIARHTDVDNTKTKLILMTNSATGERKVVEGREAFELDGWALAKYLLDRCEF,soluble
8,MSNKGGGQRSGEIGVDELWTVYKSFIRETGLARQHLDSFNRLVTQEIQKIIDSIREVRPQWRIYAGRRRYRRGRFEEHEIHLPDVKIVFGKARFKEPMAREVIESFDRRVTPFECRVRGITYSAPLMVEMTIVQDNMIEKTREVKIADFPVMVKSVLDPLSKYDEETVIEMGEDPGDPGGYFIINGSEKVIVAQEDLAVNRIIVNKSTAATARITHTAKAVSTVLGLRRQAIVDRMSDGTLEASLSRLRYRIPLVVLLRALGLEKDMEIMLAVSADPDVQREMLPSLEKGRALAPTKEDALKYLGNRIAPGQPLDVRIRRAEEFLDTQLLPHLGNRPEDRIKKAYFLAEMANRVLQLYLGKRGEDDKDFLGNKRLRLAGDLIAELFRESLEALANTMAQKLEEQLAERRQIRLDFLVRPTIISDRLKGAIATGNWGQDRTGISQQLDRTNWISLLSHLRRVISPLSRGQAHFEARDLHGSHWGRYCPFETPEGINCGLVKNLALSAYISVGVDESVVEEILVKDLGVAPLERILEEAKQAGEPPEIMLKGTKVFINGRPLGYHPNGAELARKIRELRRSDKLEVERPWEVSVYHLREGEIDELYVNTDSGRLMRPVVVVENGEPKLTREHVEKLSRGEITFWDLVKQGVVEMLDPEEEQNALIAELPWEVTKEHTHMELWVPAIVGVAAATIGYLEHNQSPRNTYQAAMAKQALGVYALNYRIRLDSHSYLLQYPQVPIVQTRMLDIMGYNERPAGQNMVVAIMSYTGYNIEDALIFNKGSIDMGLARAYFFRVYTGIENEYPGGERDRITLPKPDEVYDYRGAAAYAKLEADGIVAPETEVEGGEILIGRVSPPRFLGEGRVISMATVRRRDTSIPMRLGEKGVVDMVVISTTVERNKLVKVRVRNLRIPEIGDKFASRHGQKGVIGMIFPRYDMPYTEEGIEPDVILNPHAIPSRMTVGQLLEEIAGKLGAIKGRFVDATPFFKEDIDGLRIELLKEGYDPNAREVMYDGRTGQIIEAPITIGVAYYQRLYHMVADKIHARATGRVHLLTRQPTEGKARQGGLRFGEMERDCLVGHGASMLLRDRMLDNSDAYVMYVCNTCGNIAWFNRRKKVLECPIHGEEGDIRPVKVPYAFKLLLQEITSMMIKPELKVADKISVIRKVVGDYT,soluble
9,MSNLRIAYDRLRSMSRTEENPTVQAMQIALHIPKNDPPARSEILQAAAQAVVACCLSEESVTDEWYGNRLQQWYDHRIRKVARRGRNAAWERVTTLPGVSSVSGSAEARAFVPGPVDSVDPLLKKLQISHTDVPFDSPADPTEGPVLYVDRGLGMSVGKTAAQVGHGSMLLAAAQPFEWVERWADQGYRLSVREVDSEVFRKAAEQPGAVHVIDAGFTEVAPSSLTVVALPMLLF,not soluble
10,MSNPEQHIQDLALEEVMGDRFGRYSKYIIQERALPDVRDGLKPVQRRILFAMNVEGNTAEKGFRKSAKTVGNVIGNYHPHGDSSVYEAMVRMSQDWKVRNMLIEMHGNNGSVDGDPPAAMRYTEARLSPISAELLRDIEKETVDFIPNFDDTSSEPTVLPARFPNLLVNGSTGISAGYATDIPPHNLTEIIEAVIKRLDNPLCTTDDIMKIVKGPDFPTGGIIQGIDGIRKAYQTGKGRVVVRSKTEIEDIRGGRKQITIHEIPYEVNKANLVKRMDELRIEKKIEGISEVRDETDRTGLRIAVELKKDANAEGVLNYLFKNTDLQVSYNFNMVAINKKRPELMGIIPMLDAYIEHQKEIITKRSEYDIRKARARQHILEGLIKALSILDEVIKLIRGSKDKRDAKLNLQTKYDFSEKQAEAIVSLQLYRLTNTDIHELQSEAKSLAEQISVLEKILGDEAELIAVLKEELAEIKKKYKTARRTEVQAEIAEIKIDTEVLVANEDVIVSVTKEGYVKRTSQRSYAASNGAELAMKEADHAIFIQKMNSLDSLLLFTSKGNFIYRPVHELPDIRWKNLGDHVSHLASDLSAGEEIRSAIAIQAFTEEKRFLFVTKNGMTKQSAITNYKPQRYSKSMMAIKLKGDDELLSVHLIDGTEDIFLATKNGYGLRYSITEIPESGARTAGVKAINLKQDDIVIGGIVLMPNEQKHILLATQRGSLKQMKASEFEPISRAKRGLLMLRELKSNPHRFIGITLADNNDHLFIETNTDQIVEIDVANLRITDRYSNGSFVLDETMEGEPTSIWLAIPEIKDTSDAKEE,not soluble
11,MSNRFAVILAAGKGTRMKSKLYKVLHPVCGKPMVQHVVDQVSQLGLQKLVTVVGHGAEMVQEQLGNVSEFALQAEQLGTAHAVDQAAGVLANEEGTTLVICGDTPLITAETMEALLQQHKEAGAMATVLTAYIEEPAGYGRIVRNENGHVEKIVEHKDANEKELAIKEINTGTYCFDNKALFASLSKVSNDNVQGEYYLPDVIEILKNEGHIVSAYQTEHFDETLGVNDRVALSQAEIIMKNRINRKNMVNGVTIIDPSNTYISADAIIGSDTVLHPGTIIEGNTVIGSDCEIGPHTVIRDSEIGDRTTIRQSTVHDSKLGTEVSVGPFAHIRPDSVIGDEVRVGNFVEIKKTVFGNRSKASHLSYIGDAQVGEDVNLGCGSITVNYDGKNKFKTVIGNGVFIGCNSNLVAPVTVEDGAYVAAGSTITENVPSKALSVARARQVNKEDYVDQLLNKKKS,not soluble
12,MSNSTMEATQMKVKLAVDEMIDDLDKTYLRDMQKSMFQCSARCCDNKKTTRDAVENCVESCNDGMKKAQGYLEKELGGLQDQLSRCAMTCYDKLVQQFGPDVNKYSESQKLSFNEKLDSCVSVCADDHIKLIPAIKKRFAKNT,not soluble
13,MSNVHPYTIFATMPHKSTAKDILIMSYDLSKRLVIGLASSALFDLSESDNIFRMEGAETYRQYQREKQNHPLKKALSFHLLKNFCQSMK,not soluble
14,MSPAQIIRTSHSFPPSFTGTSSSAENSHAQSPQQVLTRAFVASGELNAAFGRTSTASAQDFTSLLGTLQRELEKKTPAFPDLAELANQLADAAMGDQGGHWLGRDEQQTLKGMIDRCKSQLAHTPASDASYDLLAQVCENLKKARLHQSISQMTGEAHAKVRGVPDLLALIQLDPDILAEKPVGMPSYVKFSSFICMAKARTAELSENLRNASNEVALLLHPHADTILEQGSLRLQIVGF,not soluble
15,MSPKVTKEHKDKRQAEILEAAKTVFKRKGFELTTMKDVVEESGFSRGGVYLYFSSTEEMFRRIIETGLDEGLRKLDKSAEHQSVWASISSYLDELTEGLRDVADTLAPVQFEYLVTAWRNEERRQYLEKRYDLFVERFSRLLQKGIDQGEFQPVQPLATIAKFFLNMNDGIIQNALYFDEEKADVSGLAESAKLYLKTVLQADEK,soluble
16,MSPLSSGLLGDLDPTSDRAVFRQIADQLREAIDRGRFREGEKLPSEAELVDHYGVSRMTVRNSFSILQGEGLVHAEHGKGVFVRPRPPVRRLASDRFARRHREQGKSAFIVEADAVGSHPKVDSLEVKEEKASQDISTRLGSVRRVLARRRRYLLDGRPVEFATSYLPLDIARGTQIAEPNPGPGGIYARLEELGHRLDHFEEEIRARMPSPAEVKTLHLAAGVPVIHLIRTAFDTEGRAVEVCDTVMAADAYVLSYQLPAT,not soluble
